Tests used:
[1] = test system: soluble forms of FcγRIa and FcγRIIIa in human and cynomolgus monkey; test: Binding to various FcγRs (BIACORE T200); conditions: 20° C., HBS-EP+ (FIG. 27)
Method: Soluble FcγRIa and FcγRIIIa in both human and cynomolgus monkey were produced in the form of His-tagged molecules by methods known to those of ordinary skill in the art. […] Next, soluble FcγRIa or FcγRIIIa was injected with a running buffer (used as a reference solution), and was made to interact with the antibodies captured onto the sensor chip. HBS-EP+ (GE Healthcare) was used as the running buffer, and HBS-EP+ was also used to dilute the soluble FcγRIa or FcγRIIIa. […] All measurements were carried out at 20° C.

[2] = test system: endometriosis nodular lesions and adhesion; assay type: in vivo, cynomolgus monkeys
From the text: Female cynomolgus monkeys of 8 to 14 years of age with regular sexual cycle (provided by the Tsukuba Primate Research Center at the National Institutes of Biomedical Innovation, Health and Nutrition) were laparotomized under anesthesia during the period corresponding to the luteal phase. The uterine corpus was removed by dissecting in a V shape. Then, the uterine corpus was cut into 5 to 10 mm cubes while leaving the smooth muscle layer of the uterus, and one and two pieces were transplanted onto the right abdominal wall and left abdominal wall (cranial and caudal sides), respectively, in such a manner that the endometrium part is in contact with the peritoneum by suturing with an absorbable suture and formed the transplant. After excision, the uterus was sutured with absorbable suture. Then, the remaining endometrial tissues were finely cut and suspended in 5 ml of 2 ng/ml Hepatocyte Growth Factor solution (R&D systems), and this was seeded in the peritoneal cavity for transplantation, followed by closure of the abdomen. Anesthesia was performed using balanced anesthesia of ketamine/xylazine (mixed at an adequate ratio of about 2:1); however, anesthesia was maintained with isoflurane depending on the maintenance period of anesthesia. The body temperature was maintained and controlled during surgery using a heating pad and the condition was monitored electrocardiographically. The antagonist Antisedan (at roughly the same amount as that of xylazine) and antibiotic cephradine were administered at the time of awakening after surgery. The pain reliever Zalban was administered for two days after surgery, and the monkeys were observed regularly every day to confirm the absence of post-surgical abnormalities. In laparoscopic observation, anesthesia and post-surgical monitoring were also performed in the same way.
Laparoscopic observation was carried out four months, nine months (3 months after administration), and 12 months (6 months after administration) following the surgical induction of endometriosis described above, and the pathological conditions of endometriosis were assessed as follows.
The abdomen was incised in the median line under anesthesia, and laparoscopic observation was performed by inserting a trocar and then introducing a laparoscope. The laparoscope was connected to a video system (KARL STORZ) and a monitor. The monitor was used for intraperitoneal observation, and the video system was used for recording. Then, the peritoneal cavity was filled with carbon dioxide gas using Intra-abdominal Insufflation Unit (OLYMPUS) to expand the abdomen, and graduated bars and forceps were inserted from the ventral portion. The size of the lesion was measured using the graduated bar or graduated forceps.
The sizes (width, height, and depth) of nodular lesions formed by suturing the endometrial tissues were measured and the volumes were calculated based on: width (mm)×height (mm)×depth (mm). The lesions and adhesion formed by seeding endometrial tissues after fine cutting were assessed for the site, area, and depth of adhesion and the size of lesion by laparoscopic observation based on modified r-AFS score modified for monkeys from the r-AFS score for clinical use. […] The item on adhesion to the vesicouterine pouch was added, because in the monkey model, the frequency of adhesion to the urinary bladder is higher than in humans. The method for assessing adhesion to the urinary bladder was the same scoring as that used for adhesion to the Douglas' pouch. • 2. Since monkey's body and organ sizes are smaller than those of humans, the criteria of lesion size scoring were altered to: <3 mm, 3-10 mm, and >10 mm.
Based on the results of laparoscopic observation four months after induction, the individuals that met the criteria were selected and grouped. The criteria for the selection are as follows: • 1. Engraftment of endometrial transplant confirmed on the laparoscopic observation four months after induction. • 2. […]

[3] = 10 mg/kg i.v. q4w, six months of administration
[4] = Table 26, proliferation lesion, per nodular lesion (animals 112, 105, 106, 121, 119, 123; sites R, L1, L2), 10 mg/kg

B1: H1009/L395-F1974m: H1009-F1974m (SEQ ID NO:36) heavy chain, L395-kOMT light chain; the anti-IL-8 antibody of Table 29 (antibody)
heavy: QVQLVESGGGLVQPGGSLRLSCAASGFTFSDYYLSWVRQAPGKGLEWVGLIRNKDNYHTPEYSASVKGRFTISRDDSKNSLYLTMSDLKTEDTAVYYCARENHRYDVELAYWGQGTLVTVSSASTKGPSVFPLAPSSKSTSGGTAALGCLVKDYFPEPVTVSWNSGALTSGVHTFPAVLQSSGLYSLSSVVTVPSSSLGTQTYICNVNHKPSNTKVDKKVEPKSCDKTHTCPPCPAPELRRGPSVFLFPPKPKDTLMISRTPEVTCVVVDVSHEDPEVKFNWYVDGVEVHNAKTKPREEQYNSTYRVVSVLTVLHQDWLNGKEYKCKVSNKGLPSSIEKTISKAKGQPREPQVYTLPPSREEMTKNQVSLTCLVKGFYPSDIAVEWESNGQPENNYKTTPPVLDSDGSFFLYSKLTVDKSRWQQGNVFSCSVLHEALHAHTTRKELSLSP
light: DIQMTQSPSSLSASVGDRVTITCRASEIIYSYLAWYQQKPGKAPKLLIYKAKTHADGVPSRFSGSGSGTDFTFTISSLQPEDIATYYCKHHFGFPRTFGQGTKVEIKRTVAAPSVFIFPPSDEQLKSGTASVVCLLNNFYPREAKVQWKVDNALQSGNSQESVTEQDSKDSTYSLSSTLTLSKADYEKHKVYACEVTHQGLSSPVTKSFNRGEC
B1 was tested, and the “binding to FcγRs (hFcγRIa, hFcγRIIIa, cynoFcγRIa, cynoFcγRIIIa)” value [1] was “not to bind to any of the FcγRs”, the “frequency of nodular lesions of type A: proliferative, ≥500 mm3” value [2, 3] was 0% and the “frequency of nodular lesions of type B: proliferative, <500 mm^3” value [2, 3] was 8%. The “frequency of nodular lesions of type C: no change” value [2, 3] was 33%, the “frequency of nodular lesions of type D: decreased” value [2, 3] was 58% and the “number of nodular lesions of type A: proliferative, ≥500 mm3 / lesions analysed” value [2, 3] was “(0/12)”. The “number of nodular lesions of type B: proliferative, <500 mm^3 / lesions analysed” value [2, 3] was “(1/12)”, the “number of nodular lesions of type C: no change / lesions analysed” value [2, 3] was “(4/12)” and the “number of nodular lesions of type D: decreased / lesions analysed” value [2, 3] was 7/12 and (7/12). For the same molecule, the “Atrophy/decrease, stromal cell (P)” value [2, 4] was “±”, the “Decreased insterstitium (P)” value [2, 4] was “±” and the “change of size r-AFS score” value ([2]; after minus before administration, versus vehicle group (FIG. 35-1)) was “tended to decrease”. The “change of total r-AFS score” value ([2]; after minus before administration, versus vehicle group, p=0.0070 (FIG. 35-1)) was “clearly decreased as compared to the vehicle group”, the “change of adhesion score” value ([2]; after minus before administration, versus vehicle group, p=0.0096 (FIG. 35-1)) was “clearly decreased as compared to the vehicle group” and the “frequency of deep lesions (endometriosis gland ducts invaded up to the muscle layer of abdominal wall)” value ([2]; anti-antibody-positive individuals excluded, vehicle group 5/18 lesions) was 1/11. For the same molecule, the muscle tissue regeneration ([2]; autopsy) was “muscle tissue regeneration, which was not seen in the vehicle group, was observed”, the “histopathology of the grafts and grafted sites (HE staining)” value ([2]; autopsy after final laparoscopic observation, compared to the vehicle group) was “atrophic changes of proliferative epithelia and stromal cells as well as reduction of the interstitium whose major component is collagenous fibers was observed” and the “number of lesions with hemosiderin / lesions” value ([2]; autopsy, vehicle group 9/16) was 4/17. The “frequency of lesions with hemosiderin” value ([2]; autopsy, vehicle group 56%) was 24% and the “total modified r-AFS score before and after administration” value ([2]; scores recorded during laparoscopic surgery, Wilcoxon's signed-rank-sum test, P=0.875 (FIG. 35-2)) was “the score did not change”.

— patent publication US20240083996A1, “COMPOSITION FOR PROPHYLAXIS OR TREATMENT OF IL-8 RELATED DISEASES” (Chugai Seiyaku Kabushiki Kaisha, priority 2016, published 2024)
